Measured values as given in PMC4822050.

Target: T1, SRA-Spacer-661 (human, UniProt Q96T88 414-661)
T1 sequence: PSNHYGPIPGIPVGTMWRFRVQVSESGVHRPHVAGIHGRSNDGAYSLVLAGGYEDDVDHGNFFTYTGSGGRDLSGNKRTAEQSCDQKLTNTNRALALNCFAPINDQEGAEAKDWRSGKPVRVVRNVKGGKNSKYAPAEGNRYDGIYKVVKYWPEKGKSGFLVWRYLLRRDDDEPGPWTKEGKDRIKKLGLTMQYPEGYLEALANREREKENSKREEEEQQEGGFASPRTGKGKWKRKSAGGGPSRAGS
Assay: FP; ITC: 10 mM HEPES pH 8.0, 100 mM NaCl, 18 C; EMSA: 20 mM HEPES pH 7.5, 100 mM NaCl, 8% glycerol, 1 mM DTT, on ice; pull-down: 20 mM HEPES-NaOH pH 8.0, 100 mM NaC

B1: FAM-12bp-HM-DNA (dsDNA)
DNA 1: CCATGCGCTGAC
DNA 2: GTCAGCGCATGG
modifications: 5-methyl-dC at position 6 of strand 2 (GTCAGXGCATGG)
  Kd: 380 ± 60 nM
